Assay results published in patent publication US20230183322A1 (PEKING UNIVERSITY, published 2023).

B1: ABU-343 (antibody, V domains shown)
VH: QVQLVQSGAEVKKPGASVKVSCKASGYTFTNYYMHWMRQAPGQGLEWMGIINPSGGSTSYAHQFQGRVTMTRDTSTSTVYMEMSSLRSEDTAVYFCVVGIGYCSSPSCPPLRWFDYWGQGTLVTVSS
VL: AIQLTQSPSSLSASVGDRVTITCRASQGISSALAWYQQKPGKAPKVLIYDASGLQSGVPSRFSGGGSGTDFTLTISSLQPEDFATYYCQQFNDYPLTFGGGTKVEIK
B2: ABU-390 (antibody, V domains shown)
VH: EVQLVESGGGLVQPGGSLRLSCAASGFTFSSYDMHWVRQATGKGLEWVSVIGTAGDTYYPGSVKGRFTISRENAKNSLYLQMNSLRAGDTAVYYCARDRDNGSGSYLGWAFDIWGQGTMVTVSS
VL: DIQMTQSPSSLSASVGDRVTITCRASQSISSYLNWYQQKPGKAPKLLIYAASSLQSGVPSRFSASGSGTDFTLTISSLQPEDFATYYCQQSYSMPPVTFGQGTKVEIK
B3: ABU-385 (antibody, V domains shown)
VH: EVQLVESGGGLVQPGGSLRLSCAASGFTVSSNYMSWVRQAPGKGLEWVSVIYSGGSTYYADSVKGRFTISRDNSKNTLYLQMNSLRAEDTAVYYCARELSYSSSSGVGPKYWGQGTLVTVSS
VL: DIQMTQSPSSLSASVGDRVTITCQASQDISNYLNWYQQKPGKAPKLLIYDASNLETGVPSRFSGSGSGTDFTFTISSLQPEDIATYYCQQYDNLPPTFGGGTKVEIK
B4: ABU-384 (antibody, V domains shown)
VH: EVQLVESGGGLVQPGGSLRLSCAASGFTVSSNYMSWVRQAPGKGLEWVSIIYSGGSTYYADSVKGRFTISRDNSKNTLYLQMNSLRAEDTAVYYCARDYAGRVWGQGTLVTVSS
VL: DIQMTQSPSSLSASVGDRVTITCQASQDIRSYLNWYQQKPGKAPKLLIYDASNLETGVASRFSGSGSGTDFTFTISSLQPEDIATYYCQQYDNLPQTFGQGTKLEIK
B5: ABU-346 (antibody, V domains shown)
VH: EAQLLESGGGLVQPGGSLRLSCAVSGFTVSSYDMSWVRQAPGKRLEWVSFISARGSVTYYADSVRGRFTISRDNFKNTLYVEMNNLRVEDTAVYYCAKGHWSTWGQGTLVTVSS
VL: DVVLTQSPLSLPVTLGQPASISCRSSHSLVYSDGYTHLHWIQERPGQSPRRLIYSVSHRDSGVPDRFSGSGSATDFTLQISRVEAEDVGVYYCMQGSHWPWTFGQGTKVEIK
B6: ABU-383 (antibody, V domains shown)
VH: EVQLVESGGGLVQPGGSLRLSCAASGFTVSSNYMSWVRQAPGKGLEWVSLIYSGGSTYYADSVKGRFTISRDNSKNTLYLQMNSLRAEDTAVYYCARDRPAAAIRFGQGTLVTVSS
VL: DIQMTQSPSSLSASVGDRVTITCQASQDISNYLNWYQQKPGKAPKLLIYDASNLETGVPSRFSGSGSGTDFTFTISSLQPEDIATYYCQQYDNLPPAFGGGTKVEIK
B7: ABU-348 (antibody, V domains shown)
VH: QVQLVESGGGVVQPGKSLRLSCAASGFTFSSYGMHWVRQAPGKGLEWVAVISNYGSNKYHADSVKGRITISRDNSKNTLYLQMNSLRAEDTAVYYCAKGGYYDILTGYFPFDYWGQGTLVTVSS
VL: QSALTQPRSVSGSPGQSVTISCTGTSSDVGGYNYVSWYQQYPGKAPKLMIYEVSKRPSGVPDRFSGSKSGNTASLTISGLQAEDEADYYCCSYAGSYTWVFGTGTKVTVL
B8: ABU-190 (antibody, V domains shown)
VH: EVQLVESGGGLIQPGGSLRLSCAASGITVSSNYMSWVRQAPGKGLEWVSVIYSGGSTDYADSVKGRFTISRDKSKNTLYLQMNSLRAEDTAVYYCARDLGEAGGMDVWGQGTTVTVSS
VL: AIQLTQSPSSLSASVGDRVTITCRASQGISSYLAWYQQKPGKAPKLLIYAASTLQSGVPSRFSGSGSGTDFTLTISSLQPEDFATYYCQQLNSYPPAFGGGTKVEIK
B9: ABU-174 (antibody, V domains shown)
VH: QVQLQQWGAGLLKPSETLSLTCAVYGGSFSDYYWNWIRRPPGKGLEWIGEITHSGSTNYNPSLKSRVTISVDTSKNQFSLKLSSVTAADTAVYYCARGQGYGRVLLWFGEWGQGTLVTVSS
VL: EIVLTQSPATLSLSPGERATLSCRASQSVSTYLAWYQQKPGQAPRLLIYDASNRATGIPARFSGSGSGTDFTLTISSLEPEDFAVYYCQQRSNWITFGQGTRLEIK

What follows are binders tested against biotin-labeled SARS-COV-2 RBD domain (SARS-CoV-2, UniProt P0DTC2 319-541) (assay: SPR, Biacore T200, biotin-RBD on SA chip, antibody as analyte).

Binder | Kd
B1 | < 20 nM
B2 | < 10 nM
B3 | < 20 nM
B4 | < 20 nM
B5 | < 10 nM
B6 | < 20 nM
B7 | < 10 nM

Each binder was assayed against S protein of the novel coronavirus SARS-CoV-2 (SARS-CoV-2, UniProt P0DTC2 14-1273) (assay: cell-based or functional assay).

Binder | IC50 for neutralizing SARS-CoV-2 pseudovirus (Huh-7 cells, luciferase)
B8 | < 0.1 µg/mL
B9 | < 0.1 µg/mL
